This passage reports Kd results from patent US20260226142A1 (MAX PLANCK GESELLSCHAFT ZUR F RDERUNG DER WISSENSCHAFTEN E V, published 2026).

Experiment [1] concerns the target T1, Cys-HLA (Staphylococcus aureus).
The target of experiment [2] is T1, Cys-HLA. This is another data set of the same source.
Experiment [3] deals with T1, Cys-HLA. The source holds these as a separate data set.
In experiment [4] the target is T1, Cys-HLA. The source holds these as a separate data set.

Like-named read-outs stand apart in the source and are kept apart here.

B1: Ma8D07 (VHH)
VHH: QVQLVESGGGLVQPGGSLRLSCAASESIYKLNAMGWYRQAPGKELELVTTISSGGSTFYTDPVKGRFTISTDNAKNTVYLQMRSLKPEDTAMYYCAANPTYNHYSARGQGTQVTVSS
The molecule B1 yielded an equilibrium dissociation constant (Kd) in the experiment with Cys-HLA [1] of 800 pM.

B2: Ma8D08 (VHH)
VHH: QVQLVESGGGFVQAGGSLRLSCAASESIYKLNAMGWYRQAPGKELELVTTISSGGSTFYTDPVKGRFTISTDNAKNTVYLQMRSLKPEDTAMYYCAANPTYNHYSARGQGTQVTVSS
For the molecule B2, binding with Cys-HLA [1] was put at a Kd of 1000 pM.

B3: Ma8E03 (VHH)
VHH: QVQLVESGGGLVHPGGSLRLSCAASGSSLDHYVIGWFRQVPGKEREGVSCISRSGGSTNYADSVKGRFTVSRDNVKNMVYLQMNSLEPEDSAEYYCAAQRNLGNFCVLGWLEYDDWGQGTQVTVSS
In the experiment with Cys-HLA [1], B3 came in with a Kd of at most 10 pM.

B4: Ma8G02 (VHH)
VHH: QVQLVESGGGLVLPGGSLRLSCAASGSSLDHYVIGWFRQYPGKEREGVSCISRSGGSTNYADSVKGRFTVSRDNVKNMVYLQMNSLEPEDSAEYYCAAQRNLGNFCVLGWVEYDDWGQGTQVTVSS
On to B4, for which the equilibrium dissociation constant (Kd) with Cys-HLA [1] is at most 10 pM.

B5: Ma7A07 (VHH)
VHH: QVQLVESGGGLVQPGGSLRLSCAASGFTLGDYTLGWFRQAPGKQREGVSSIASSALSIYIADSVKGRFTISRDDAKNTIYLHMNNLKPEDTGVYYCARGVDSWRWVPSAMDLWGKGTLVTVSS
B5: the results for the Kd in the experiment with Cys-HLA [1] and with Cys-HLA [2] were at most 10 pM and 6 pM, respectively.

B6: Ma7A08 (VHH)
VHH: QVQLVESGGGLVQPGGSLTLSCAASGFTLGDYTLGWFRQAPGKQREGVSSIASSVLSVYIADSVKGRFTISRDDAKNTIYLHMNNLKPEDTGVYYCARGVDSWRWVPSAMDLWGKGTLVTVSS
For B6, the dissociation constant (Kd) with Cys-HLA [1] was at most 10 pM.

B7: Ma7B03 (VHH)
VHH: QVQLVESGGGLVQPGGSLRLSCAASGFTLSNYYVGWFRQAPGKQREGVSSIGSSDLSIYIADSVKGRFTISRDNAKNTIYLHMNNLKPDDTGVYYCARGTDSWRWVPSAMDLWGKGTQVTVSS
B7: the Kd with Cys-HLA [1] is at most 10 pM.

B8: Ma7B12 (VHH)
VHH: QVQLVESGGGLVQPGGSLRLSCAASGFTLGDYTLGWFRQAPGKQREGVSSIASSALSIYIADSVKGRFTISRDNAKNTVYLHMNNLKPEDTGVYYCARGIDNWRWVPSAMDLWGKGTQVTVSS
In the experiment with Cys-HLA [1], B8 registered a Kd of at most 10 pM.

B9: Bm28A12 (VHH)
VHH: QVQLVESGGGLVQAGGSLRLSCVVSGRALSSYNLAWFRQSPGKEREWIATIMPSADKAHYPDFLEGRFTISGDNTENTLYLQMNSLKPEDTAIYYCAAREPSYYHALFEYEYNLWGQGTQVTVSS
For B9, the equilibrium dissociation constant (Kd) was at most 10 pM with Cys-HLA [1] and 130 pM with Cys-HLA [3].

B10: Ma8H03 (VHH)
VHH: QVQLVESGGGLVHPGGSLRLSCAASGSSLDHYVIGWFRQVPGKQREGISCISSGGSTNYADSVKGRFTVSRDNVKSTVYLQMNSLAPDDSAEYYCAAQRNLGNFCVLGWLEYDDWGQGTQVTVSS
Regarding B10, the Kd was at most 10 pM with Cys-HLA [1] and at most 1 pM in the experiment with Cys-HLA [2].

B11: Ma7C02 (VHH)
VHH: QVQLVESGGGLVQAGGSLRLSCAASGRTFSDYAMGWFRQAAGKDRDFVAVITRSGDSTYYPDSTKGRFTISRDNAKNTMYLQMNSLKPEDTARYYCAATDPTNYWRIWEHEFDYWGQGTQVTVSS
As for B11, in the experiment with Cys-HLA [1], binding was put at a Kd of 90 pM.

B12: Ma7C11 (VHH)
VHH: QVQLVESGGGLVRAGGSLRLSCAASGSISSVNGMGWFRQAPGKERLFVAQVSLLDSSTYYADSVKGRFTISRDDAKNTMYLQMNNVRPEETAVYYCAATKLRIGTAFSSEYDYWGQGTQVTVSS
In the experiment with Cys-HLA [1], B12 gave a Kd of 300 pM.

B13: Bm28C04 (VHH)
VHH: QVQLVESGGGSVQPGNSLRLSCKVSGRTFNSYALGWFRRRPGDQRDFVASIIRSTGGTSYADSVKGRFTISYDNVQNTVDLQMNSLEPEDTAIYYCAGGDGHIYAFGYDYWGQGTQVTVSS
Regarding B13, the Kd in the experiment with Cys-HLA [4] was about 50 pM; with Cys-HLA [1], at most 10 pM; with Cys-HLA [3], 40 pM.

B14: Bm28H07 (VHH)
VHH: QVQLVESGGGSVQPGNSLRLSCKVSGRTFNSYALGWFRRRPGDQRDFVASIIRSTGGTSYADSVKGRFTISYDNVQNTVDLQMSSLEPEDTAIYYCAGGDGHIYAFGYDYWGQGTQVTVSS
Turning to B14, in the experiment with Cys-HLA [1], the equilibrium dissociation constant (Kd) was at most 10 pM.

B15: Bm28H01 (VHH)
VHH: QVQLVESGGGLVQPGGSLTLSCAASGFTLGDRTLGWFRQVAGKQREGVASIASGVLSAYIADSVKGRFTISRDDAKNTIYLHMNNLKPDDTGVYYCARGVDSWRWVPSTMDLWGKGILVTVSS
For B15, the Kd in the experiment with Cys-HLA [1] was at most 10 pM.

B16: Ma8A05 (VHH)
VHH: QVQLVESGGGLVQPGGSLRLSCAASPASGFTLDLYTIAWFLQAPGKEREGVSAISLSDEITYYSDAVKGRFTISRDSAKNTVFLQMDRLKPEDTGVYYCAIGAFDFILKEADADYWGQGTQVTVSS
Turning to B16, the dissociation constant (Kd) with Cys-HLA [1] turned out to be 600 pM.

B17: Ma8D05 (VHH)
VHH: QVQLVESGGGLVQPGGSLRLSCAASPASGFTLDLYTIAWFLQAPGKEREGVSAISLSDEITYYSDTVKGRFTISRDSAKNTVFLQMDRLKPEDTGVYYCAIGAFDFILKEADADYWGQGTQVTVSS
Regarding B17, the Kd in the experiment with Cys-HLA [1] was determined as 1000 pM. This Kd lies about 1.7-fold higher than the previous one.

B18: Ma31B06 (VHH)
VHH: QVQLVQSGGGLVQPGGTLRLSCAASPASGFTLDLYTIAWFLQAPGKEREGVSAISLSDEITYYSDAVKGRFTISRDSAKNTVFLQMDRLKPEDTGVYYCAIGAFDFILKEADADYWGQGTQVTVSS
In the experiment with Cys-HLA [1], B18 returned a Kd of 75 pM. This Kd is about 13-fold lower than that of the molecule before.

B19: Ma31A12 (VHH)
VHH: QVQLVESGGGLVQPGGSLRLSCAASAASGFTLDLYTIAWFLQAPGKEREGVSAISLSDEITYYSDAVKGRFTISRDSAKNTVFLQMDRLKPEDTGVYYCAIGAFDFILKEVDADYWGQGTQVTVSS
B19 had a Kd with Cys-HLA [1] of 65 pM.

B20: Bm28F09 (VHH)
VHH: QVQLVESGGGLVEPGGSLTLSCAASGFTSKNYYIGWFRQAPGKYREGVASIGASDGSLYIADSVKGRFTISSDNAKNTVYLHPRNLKPEDSGVYYCATGRDSWRWVPSAMDYWGKGIQVTVSS
On to B20, for which the Kd with Cys-HLA [1] was found to be 150 pM. This Kd is about 2.3-fold higher than that of the molecule before.

B21: Ma7D06 (VHH)
VHH: QVQLVESGGGLVQAGGSLRLSCAASGSISGIDTMAWFRQIPGKDREFVAVIKWAAGSTWYPDFVKGRFTVSRDNAKNMVYLQMDSVKPEDTAIYYCAAAAGEKYYYRLFPYEYDYWGQGTQVTVSS
In the experiment with Cys-HLA [1], B21 gave a Kd of 60 pM.

B22: Bm28C09 (VHH)
VHH: QVQLVESGGSVVQAGGSLRLSCTASGRNFNSYAMGWFRRPPGEQRDFIAAIIRSTGKTTYADSDSVKGRFTISKDSSGNTVYLQMNNLKPEDTAIYYCAGGDAGPYAFGYDYWGQGTQVTVSS
Regarding B22, the Kd with Cys-HLA [1] is at most 10 pM; with Cys-HLA [3], 15 pM.

B23: Ma7B01 (VHH)
VHH: QVQLVESGGGLVQAGDSLSLSCAASGRTFSNYAMGWFRQAPGKERHFVAVINQIGDSTWYPDFAKGRFTISRDNAKNTLYLQMNSLKPEDTAVYYCAATDPRSYWRIWPHEYGYWGQGTQVTVSS
In the experiment with Cys-HLA [1], B23 displayed a Kd of 50 pM.

B24: Ma7E01 (VHH)
VHH: QVQLVESGGGSVQAGDSLSLSCVASERTFSNYAMGWFRQAPGKERHFVAVINPIGEETWYPDFAKGRFTISRDNAKNTLYLQMNSLKPEDTAVYYCAATDPRSYWRIWEHEFDYWGQGTQVTVSS
In the case of B24, the Kd in the experiment with Cys-HLA [1] is at most 10 pM.

B25: Ma7F02 (VHH)
VHH: QVQLVESGGGLVQAGGSLRLSCTVSGSIDSLHTMGWFRQAPGKKRDFVAVVSWSGGNTYYPDYAKGRFTISRDNTKNTVYLQMNSLKPEDTAIYYCAAESGSGNYWKIWEHEFDSWGQGTQVTVSS
On to B25, for which the Kd with Cys-HLA [4] is about 50 pM; with Cys-HLA [1], 40 pM.

A word on the Kd: it is the equilibrium constant for the complex coming apart.
